# Source: PMC3317874, “Palmitoylation and membrane cholesterol stabilize μ-opioid receptor homodimerization and G protein coupling” (BMC Cell Biology, 2012)
# T1: YFP-fused wild-type μ-opioid receptor (OPRM1) (rat), P33535
# T1 chain: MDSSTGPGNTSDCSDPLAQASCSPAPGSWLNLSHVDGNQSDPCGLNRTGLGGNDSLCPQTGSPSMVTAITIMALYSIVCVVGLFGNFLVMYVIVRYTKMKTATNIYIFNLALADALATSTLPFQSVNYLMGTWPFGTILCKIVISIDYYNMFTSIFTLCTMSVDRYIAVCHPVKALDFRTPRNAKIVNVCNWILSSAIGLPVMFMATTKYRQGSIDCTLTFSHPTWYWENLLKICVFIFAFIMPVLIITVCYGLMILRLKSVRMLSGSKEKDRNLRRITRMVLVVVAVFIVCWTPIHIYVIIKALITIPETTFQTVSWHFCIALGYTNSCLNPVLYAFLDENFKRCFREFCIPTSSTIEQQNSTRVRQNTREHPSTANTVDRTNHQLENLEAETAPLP
# Legend:
# Experiment in all cases: FRET or BRET; CFP and YFP constructs transiently transfected into HEK cells; normalized net FRET analysed on the cell membrane; also after 12 h of 0.5 μM simvastatin, simvastatin with 20 ng/ml cholesterol, or 50 μM 2-BP
# [1] = molecular target: T1, YFP-fused wild-type μ-opioid receptor …; conditions: remark: other sources report otherwise
# [2] = molecular target: T2, YFP-fused C170A mutant of μ-opioid receptor (OPRM1) (rat, UniProt P33535 1-398, C170A); conditions: partners not purified
# T2 construct: μ-opioid receptor (OPRM1) with C3.55(170) mutated to alanine; also called YFPC170A; source: HEK cells, transiently transfected, in cells; not shown: YFP, C-terminal, kept
# [3] = molecular target: T3, YFP-fused wild-type μ-opioid receptor (OPRM1) (rat, UniProt P33535 1-398, palmitoylated at C3.55(170)); conditions: partners not purified
# T3 construct: μ-opioid receptor (OPRM1), wild type; also called YFPOPRM1; source: HEK cells, transiently transfected, in cells; not shown: YFP, C-terminal, kept
Binder,normalized net FRET [1],normalized net FRET [2],normalized net FRET [3]
"CFP-fused wild-type μ-opioid receptor (OPRM1), P33535 1-398 (receptor, here or on the partner: palmitoylated at C3.55(170); palmitoylated at C3.55(170)) MDSSTGPGNTSDCSDPLAQASCSPAPGSWLNLSHVDGNQSDPCGLNRTGLGGNDSLCPQTGSPSMVTAITIMALYSIVCVVGLFGNFLVMYVIVRYTKMKTATNIYIFNLALADALATSTLPFQSVNYLMGTWPFGTILCKIVISIDYYNMFTSIFTLCTMSVDRYIAVCHPVKALDFRTPRNAKIVNVCNWILSSAIGLPVMFMATTKYRQGSIDCTLTFSHPTWYWENLLKICVFIFAFIMPVLIITVCYGLMILRLKSVRMLSGSKEKDRNLRRITRMVLVVVAVFIVCWTPIHIYVIIKALITIPETTFQTVSWHFCIALGYTNSCLNPVLYAFLDENFKRCFREFCIPTSSTIEQQNSTRVRQNTREHPSTANTVDRTNHQLENLEAETAPLP",0.49,–,–
"CFP-fused wild-type μ-opioid receptor (OPRM1) (receptor, rat, UniProt P33535 1-398, looked up, palmitoylated at C3.55(170), μ-opioid receptor (OPRM1), wild type; also called CFPOPRM1; source: HEK cells (also HEKOPRM1 and HEKC170A cells), transiently transfected, in living or fixed cells; not shown: CFP, C-terminal, kept) MDSSTGPGNTSDCSDPLAQASCSPAPGSWLNLSHVDGNQSDPCGLNRTGLGGNDSLCPQTGSPSMVTAITIMALYSIVCVVGLFGNFLVMYVIVRYTKMKTATNIYIFNLALADALATSTLPFQSVNYLMGTWPFGTILCKIVISIDYYNMFTSIFTLCTMSVDRYIAVCHPVKALDFRTPRNAKIVNVCNWILSSAIGLPVMFMATTKYRQGSIDCTLTFSHPTWYWENLLKICVFIFAFIMPVLIITVCYGLMILRLKSVRMLSGSKEKDRNLRRITRMVLVVVAVFIVCWTPIHIYVIIKALITIPETTFQTVSWHFCIALGYTNSCLNPVLYAFLDENFKRCFREFCIPTSSTIEQQNSTRVRQNTREHPSTANTVDRTNHQLENLEAETAPLP",–,0.3,–
"CFP-fused C170A mutant of μ-opioid receptor (OPRM1) (receptor, rat, UniProt P33535 1-398, looked up, μ-opioid receptor (OPRM1) with C3.55(170) mutated to alanine; also called CFPC170A; source: HEK cells (also HEKOPRM1 and HEKC170A cells), transiently transfected, in cells; not shown: CFP, C-terminal, kept) MDSSTGPGNTSDCSDPLAQASCSPAPGSWLNLSHVDGNQSDPCGLNRTGLGGNDSLCPQTGSPSMVTAITIMALYSIVCVVGLFGNFLVMYVIVRYTKMKTATNIYIFNLALADALATSTLPFQSVNYLMGTWPFGTILCKIVISIDYYNMFTSIFTLCTMSVDRYIAVAHPVKALDFRTPRNAKIVNVCNWILSSAIGLPVMFMATTKYRQGSIDCTLTFSHPTWYWENLLKICVFIFAFIMPVLIITVCYGLMILRLKSVRMLSGSKEKDRNLRRITRMVLVVVAVFIVCWTPIHIYVIIKALITIPETTFQTVSWHFCIALGYTNSCLNPVLYAFLDENFKRCFREFCIPTSSTIEQQNSTRVRQNTREHPSTANTVDRTNHQLENLEAETAPLP",–,0.07,0.27
